Target: CaV1.2 (α1C) L-type calcium channel subunit
Test: cell-based or functional assay

## calcium channel β3 subunit
  Ca^2+ influx (fluorescence change after depolarization with 50 mM KCl) in transfected HEK 293 cells: 3 fold
